According to publication PMC8024992:

Target: ubiquitin-rhodamine (Ub-Rho) (UniProt P0CG48)

KM (= k off/k on) from the KinTek global fit of activity data; +UAF1, Ub-Rho: 5.94 µM
Substance: USP1^WT-UAF1 (active) (from UniProt O94782;Q8TAF3) (complex)
